Sequences and labels used below:
B1: GST-GluR2 NTa5 (Q222-S271) (other, UniProt P19491 222-271, looked up)
chain: QVITIGKHVKGYHYIIANLGFTDGDLLKIQFGGANVSGFQIVDYDDSLVS
notes: range 222-271; also called GluR2NT1-5; not shown: glutathione S-transferase (GST) encoded by vector pGEX-4T3
B2: GST-GluR2 NTb (K272-I421) (other, UniProt P19491 272-421, looked up)
chain: KFIERWSTLEEKEYPGAHTATIKYTSALTYDAVQVMTEAFRNLRKQRIEISRRGNAGDCLANPAVPWGQGVEIERALKQVQVEGLSGNIKFDQNGKRINYTINIMELKTNGPRKIGYWSEVDKMVVTLTELPSGNDTSGLENKTVVVTTI
notes: range 272-421; also called GST-GluR2NT2; GluR2NT2; not shown: glutathione S-transferase (GST) encoded by vector pGEX-4T3
B3: GST-GluR2 NTa4 (K172-D221) (other, UniProt P19491 172-221, looked up)
chain: KWQVTAINVGNINNDKKDETYRSLFQDLELKKERRVILDCERDKVNDIVD
notes: range 172-221; also called GluR2NT1-4; not shown: glutathione S-transferase (GST) encoded by vector pGEX-4T3
B4: GST-GluR2 NTa1 (V22-F71) (other, UniProt P19491 22-71, looked up)
chain: VSSNSIQIGGLFPRGADQEYSAFRVGMVQFSTSEFRLTPHIDNLEVANSF
notes: range 22-71; also called GluR2NT1-1; not shown: glutathione S-transferase (GST) encoded by vector pGEX-4T3
B5: GST-GluR2 NTa2 (A72-T121) (other, UniProt P19491 72-121, looked up)
chain: AVTNAFCSQFSRGVYAIFGFYDKKSVNTITSFCGTLHVSFITPSFPTDGT
notes: range 72-121; also called GluR2NT1-2; not shown: glutathione S-transferase (GST) encoded by vector pGEX-4T3
B6: p53, endogenous protein of rat hippocampus (other, UniProt P10361 1-391, looked up)
chain: MEDSQSDMSIELPLSQETFSCLWKLLPPDDILPTTATGSPNSMEDLFLPQDVAELLEGPEEALQVSAPAAQEPGTEAPAPVAPASATPWPLSSSVPSQKTYQGNYGFHLGFLQSGTAKSVMCTYSISLNKLFCQLAKTCPVQLWVTSTPPPGTRVRAMAIYKKSQHMTEVVRRCPHHERCSDGDGLAPPQHLIRVEGNPYAEYLDDRQTFRHSVVVPYEPPEVGSDYTTIHYKYMCNSSCMGGMNRRPILTIITLEDSSGNLLGRDSFEVRVCACPGRDRRTEEENFRKKEEHCPELPPGSAKRALPTSTSSSPQQKKKPLDGEYFTLKIRGRERFEMFRELNEALELKDARAAEESGDSRAHSSYPKTKKGQSTSRHKKPMIKKVGPDSD
B7: Glyceraldehyde 3-phosphate-dehydrogenase (GAPDH), endogenous protein of rat hippocampus (enzyme)
chain: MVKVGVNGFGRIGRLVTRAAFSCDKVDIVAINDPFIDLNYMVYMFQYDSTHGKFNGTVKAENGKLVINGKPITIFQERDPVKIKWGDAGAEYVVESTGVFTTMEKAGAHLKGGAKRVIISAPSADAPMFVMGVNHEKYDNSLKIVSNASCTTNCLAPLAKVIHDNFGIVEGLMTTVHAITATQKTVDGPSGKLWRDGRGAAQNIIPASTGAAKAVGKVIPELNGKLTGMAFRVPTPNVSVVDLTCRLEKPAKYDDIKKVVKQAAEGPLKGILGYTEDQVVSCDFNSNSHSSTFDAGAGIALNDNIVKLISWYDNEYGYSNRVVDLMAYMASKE
notes: Native protein in rat hippocampal extracts, primary rat hippocampal neurons and rat brain
B8: GST-GluR2 NTc (L422-E545) (other, UniProt P19491 422-545, looked up)
chain: LESPYVMMKKNHEMLEGNERYEGYCVDLAAEIAKHCGFKYKLTIVGDGKYGARDADTKIWNGMVGELVYGKADIAIAPLTITLVREEVIDFSKPFMSLGISIMIKKPQKSKPGVFSFLDPLAYE
notes: range 422-545; also called GST-GluR2NT3; GluR2NT3; not shown: glutathione S-transferase (GST) encoded by vector pGEX-4T3

Assay [1] deals with B7. Put plainly: GST pull-down, Western blot for GAPDH. A general note: Immunoblotting shows a protein as a band on a membrane.
Assay [2] addresses T1, [35S]-GAPDH probe (in vitro translated, [35S]-methionine labelled GAPDH) (Homo sapiens, UniProt P04406 1-335, limits assumed, [35S]-methionine labelled). Put plainly: blot overlay with in vitro translated probe.
In assay [3] the target is T1, [35S]-GAPDH probe (in vitro translated, …). Nature of the assay: repeated in vitro binding assay with in vitro translated probe.
Assay [4] concerns the target B7. Put plainly: repeated GST pull-down from rat hippocampal tissue.
Another assay concerns the target T2, GST-GluR2NT (V22-E545) (Rattus norvegicus (Rat), UniProt P19491 22-545).
T2 construct: Bacterial GST fusion on glutathione-Sepharose; not shown: glutathione S-transferase (GST) encoded by vector pGEX-4T3
Nature of the assay: GST pull-down, Western blot for p53 (FIG. 24A).

The target of another assay is T3, GST alone (UniProt P08515 1-218 = GST).
T3 construct: Negative control; also called GST peptide
Nature of the assay: GST pull-down, Western blot for GAPDH.

The target in assay [5] is B2. Nature of the assay: repeated GST pull-down from rat hippocampal tissue.
In assay [6] the target is B8. Nature of the assay: repeated GST pull-down from rat hippocampal tissue.
The next assay has as its target T4, GST-GluR1NT (A19-E538) (UniProt P19490 19-538).
T4 construct: range 19-538; Control fusion protein; not shown: glutathione S-transferase (GST) encoded by vector pGEX-4T3
Put plainly: GST pull-down from rat hippocampal extracts, Coomassie-stained SDS-PAGE.

These results are taken from US20130336951A1 (CENTRE FOR ADDICTION AND MENTAL HEALTH, published 2013).

T1 sequence (P04406 whole entry): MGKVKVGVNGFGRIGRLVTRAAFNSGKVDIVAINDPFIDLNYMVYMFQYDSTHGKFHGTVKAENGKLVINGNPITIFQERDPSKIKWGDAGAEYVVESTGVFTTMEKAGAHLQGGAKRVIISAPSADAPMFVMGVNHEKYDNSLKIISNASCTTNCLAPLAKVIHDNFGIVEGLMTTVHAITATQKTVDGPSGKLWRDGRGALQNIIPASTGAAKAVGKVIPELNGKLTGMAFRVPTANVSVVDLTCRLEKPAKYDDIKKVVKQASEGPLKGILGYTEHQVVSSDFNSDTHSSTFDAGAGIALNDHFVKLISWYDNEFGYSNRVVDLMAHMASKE
T3 sequence (P08515 whole entry): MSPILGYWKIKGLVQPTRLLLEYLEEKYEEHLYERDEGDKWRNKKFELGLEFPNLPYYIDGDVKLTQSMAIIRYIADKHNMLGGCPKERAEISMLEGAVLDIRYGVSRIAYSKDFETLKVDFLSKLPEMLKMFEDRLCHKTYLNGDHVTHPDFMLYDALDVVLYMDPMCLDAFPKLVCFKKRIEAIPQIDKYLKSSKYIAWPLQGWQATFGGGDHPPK

Turning to B1, the binding result in [1] and in [2] was “no binding” each time.
Regarding B2, the binding result in assay [3] was “no binding”.
For the molecule B3, the binding result in [1] and in assay [2] was “no binding” each time.
Consider B4, for which the binding result in assay [2] and in assay [4] was “no binding” throughout.
As for B5, the binding result in assay [1] and in assay [2] was “no binding” each time.
With B6, the binding result with GST-GluR2NT (V22-E545) is listed as “no binding”.
Consider B7, for which the binding result (in the assay with GST alone; in assay [5]; in assay [6]; with GST-GluR1NT (A19-E538)) was “no binding” throughout.
On to B8, for which the binding result in assay [3] is listed as “no binding”.
